The numbers were not newly measured in publication PMC3760879, which cites them from elsewhere.

In the series the target is Asp97 (UniProt position 97, VFRYIDWLLTV). The settings on record: dark/ground state implied (protonation of the acceptor group at neutral pH); not explicitly stated.

For “Proteorhodopsin (PR) (uncultured marine gamma-proteobacterium (the article says only 'γ-proteobacteria'))”, the pKa entry is “around 7.2”.
